Data on seven molecules can be found in patent US20140223597A1, “Mutated Hydroxyphenylpyruvate Dioxygenase, DNA Sequence and Isolation of Plants Which Are Tolerant To HPPD Inhibitor Herbicides” (Bayer CropScience AG, priority 2008, published 2014).

Numbering of substitutions follows the chain as printed.

B1: Asp (protein, UniProt P93836 1-445, looked up, variant G422D)
4-hydroxyphenylpyruvate …: MGHQNAAVSENQNHDDGAASSPGFKLVGFSKFVRKNPKSDKFKVKRFHHIEFWCGDATNVARRFSWGLGMRFSAKSDLSTGNMVHASYLLTSGDLRFLFTAPYSPSLSAGEIKPTTTASIPSFDHGSCRSFFSSHGLGVRAVAIEVEDAESAFSISVANGAIPSSPPIVLNEAVTIAEVKLYGDVVLRYVSYKAEDTEKSEFLPGFERVEDASSFPLDYGIRRLDHAVGNVPELGPALTYVAGFTGFHQFAEFTADDVGTAESGLNSAVLASNDEMVLLPINEPVHGTKRKSQIQTYLEHNEGAGLQHLALMSEDIFRTLREMRKRSSIGGFDFMPSPPPTYYQNLKKRVGDVLSDDQIKECEELGILVDRDDQGTLLQIFTKPLGDRPTIFIEIIQRVGCMMKDEEGKAYQSGGCGGFGKDNFSELFKSIEEYEKTLEAKQLVG
B2: Pro (protein, UniProt P93836 1-445, looked up, variant G422P)
4-hydroxyphenylpyruvate …: B1 4-hydroxyphenylpyruvate … with D422P
B3: His (protein, UniProt P93836 1-445, looked up, variant G422H)
4-hydroxyphenylpyruvate …: B1 4-hydroxyphenylpyruvate … with D422H
B4: Met (protein, UniProt P93836 1-445, looked up, variant G422M)
4-hydroxyphenylpyruvate …: B1 4-hydroxyphenylpyruvate … with D422M
B5: Val (protein, UniProt P93836 1-445, looked up, variant G422V)
4-hydroxyphenylpyruvate …: B1 4-hydroxyphenylpyruvate … with D422V
B6: Phe (protein, UniProt P93836 1-445, looked up, variant G422F)
4-hydroxyphenylpyruvate …: B1 4-hydroxyphenylpyruvate … with D422F
B7: Leu (protein, UniProt P93836 1-445, looked up, variant G422L)
4-hydroxyphenylpyruvate …: B1 4-hydroxyphenylpyruvate … with D422L

One series relates to Arabidopsis thaliana HPPD. Nature of the series: Assay for HPPD activity (4-HPP consumption, DNP photometric readout at 405 nm) in presence and absence of Tembotrione. Type of series: biochemical. The settings on record: 5 μM Tembotrione; uninhibited enzyme activity set to 100%; 444 nM HPPD, 500 μM 4-HPP, 1 h room temperature. As to the method: (§1) HPPD produces homogentisate and CO2 from 4-HPP and O2. The enzyme is incubated with its substrate 4-HPP in the presence or absence of an inhibitor. L-ascorbic acid is present as a reductant to retain the active site iron in the ferrous form and Catalase is present to degrade toxic H2O2. After an incubation time of one hour, the reaction is stopped by addition of 2,4-Dinitrophenylhydrazine (DNP). DNP forms a hydrazone derivative with the remaining 4-HPP molecules in the assay mixture which appears in an amber-brown colour at an alkaline pH. The amount of unconsumed 4-HPP is measured photometrically at 405 nm.
(§2) For preparation of inhibitor stock solutions, Tembotrione (MW=440.82) and DKN (Mw=359.3) are dissolved in DMSO to a concentration of 10 mM. […] Further dilutions are made with ddH2O to obtain the inhibitor solutions used in the assay (5 μM, 10 μM and 20 μM). […] A 2% DMSO solution provides for half of the assay mixture in uninhibited reactions to normalize a possible inhibiting effect of DMSO.
(§3) The assay is designed for a HPPD concentration of 444 nM on a monomeric basis and a 4-HPP concentration of 500 μM. This corresponds to 44.4 pmol HPPD and 50 nmol 4-HPP in a 100 μL-assay mixture, resulting in an approximate 1000-fold excess of substrate in relation to the enzyme. The calculated theoretical molecular weight of an AtHPPD subunit is 49.515 kD which results in 2.2 μg HPPD per assay mixture. The calculated theoretical molecular weight of a PfHPPD subunit is 41.205 kD, resulting in 1.8 μg HPPD per assay mixture. The enzyme solution provides for one quarter of the assay mixture volume, so enzyme stock solutions are produced by diluting AtHPPD solutions to 88 μg*mL^−1 with 50 mM TRIS buffer; PfHPPD solutions are diluted to 72 μg*mL^−1.
(§4) The inhibitor concentrations (2.5 μM, 5 μM and 10 μM) provide for 5-fold, 10-fold and 20-fold excess of inhibitor compared to the amount of enzyme. A buffer/substrate solution is prepared which provides for one quarter of the assay mixture. 2.5 mL of buffer/substrate solution contain 1 mL 1 M TRIS buffer, 500 μL 10 mM 4-HPP solution, 500 μL 200 mM L-ascorbic acid solution, 13 μL Catalase solution and 487 μL ddH2O. The assay is carried out in Greiner F-bottom 96 well microplates and all reactions are carried out as triplicates. The controls are carried out sixfold per plate and contain either 25 μL 50 mM TRIS instead of HPPD solution (corresponding to 0% consumption of 4-HPP) or a buffer/substrate solution that contains 500 μL 1 M TRIS instead of 500 μL 10 mM 4-HPP (corresponding to 100% consumption of HPP). The reaction is started by addition of 25 μL HPPD solution to a mixture of 50 μL of the respective inhibitor solution or 50 μL 2% DMSO and 25 μL buffer/substrate solution. The reaction is allowed to proceed for 1 h at room temperature. The reaction is stopped and coloration of 4-HPP is induced by addition of 50 μL 0.04% DNP/3.8 N HCl solution. After 15 min, addition of 100 μL 5 N KOH leads to the colour shift of the hydrazone derivative. Photometric measurement with a BMG FLUOstar Galaxy microplate reader is carried out immediately at 405 nm and data obtained is used for analysis of HPPD activities in presence and absence of an inhibitor.
In the case of B1, the “Relative activity (in percentage) of At HPPD mutants in presence of Tembotrione” value is 7%.

On to B2, for which the “Relative activity (in percentage) of At HPPD mutants in presence of Tembotrione” value stood at 0%.

For B3, the “Relative activity (in percentage) of At HPPD mutants in presence of Tembotrione” value is 31%.

Turning to B4, the “Relative activity (in percentage) of At HPPD mutants in presence of Tembotrione” value was determined as 13%.

As to B5, the “Relative activity (in percentage) of At HPPD mutants in presence of Tembotrione” value is listed as 22%.

Regarding B6, the “Relative activity (in percentage) of At HPPD mutants in presence of Tembotrione” value amounted to 16%.

B7: the “Relative activity (in percentage) of At HPPD mutants in presence of Tembotrione” value is on record as 23%.

The same series, now with this note: 10 μM Tembotrione; uninhibited enzyme activity set to 100%; 444 nM HPPD, 500 μM 4-HPP, 1 h room temperature.
As to B1, the “Relative activity (in percentage) of At HPPD mutants in presence of Tembotrione” value is 10%.

As for B2, the “Relative activity (in percentage) of At HPPD mutants in presence of Tembotrione” value amounted to 0%.

For B3, the “Relative activity (in percentage) of At HPPD mutants in presence of Tembotrione” value stood at 40%.

With B4, the “Relative activity (in percentage) of At HPPD mutants in presence of Tembotrione” value was 12%.

As for B5, the “Relative activity (in percentage) of At HPPD mutants in presence of Tembotrione” value is on record as 14%.

For the molecule B6, the “Relative activity (in percentage) of At HPPD mutants in presence of Tembotrione” value came out at 11%.

For the molecule B7, the “Relative activity (in percentage) of At HPPD mutants in presence of Tembotrione” value is recorded as 14%.

Staying with this series, now noted: […] Tembotrione; uninhibited enzyme activity set to 100%; 444 nM HPPD, 500 μM 4-HPP, 1 h room temperature.
Turning to B1, the “Relative activity (in percentage) of At HPPD mutants in presence of Tembotrione” value is given as 20%.

In the case of B2, the “Relative activity (in percentage) of At HPPD mutants in presence of Tembotrione” value was 0%.

B3: the “Relative activity (in percentage) of At HPPD mutants in presence of Tembotrione” value worked out at 50%.

As for B4, the “Relative activity (in percentage) of At HPPD mutants in presence of Tembotrione” value was found to be 18%.

Regarding B5, the “Relative activity (in percentage) of At HPPD mutants in presence of Tembotrione” value stood at 43%.

On to B6, for which the “Relative activity (in percentage) of At HPPD mutants in presence of Tembotrione” value worked out at 30%.

Consider B7, for which the “Relative activity (in percentage) of At HPPD mutants in presence of Tembotrione” value was 31%.

The subject of a further series is Pseudomonas fluorescens HPPD. The series is described as above. Type of series: biochemical. The settings on record: 5 μM Tembotrione; uninhibited enzyme activity set to 100%; 444 nM HPPD, 500 μM 4-HPP, 1 h room temperature. The method, then:
as §1, §2, §3, §4
For the molecule B1, the “Relative activity (in percentage) of Pf HPPD mutants in presence of Tembotrione” value came out at 9%.

For the molecule B2, the “Relative activity (in percentage) of Pf HPPD mutants in presence of Tembotrione” value came out at 4%.

On to B3, for which the “Relative activity (in percentage) of Pf HPPD mutants in presence of Tembotrione” value came to 13%.

For B4, the “Relative activity (in percentage) of Pf HPPD mutants in presence of Tembotrione” value is on record as 7%.

For B6, the “Relative activity (in percentage) of Pf HPPD mutants in presence of Tembotrione” value is given as 12%.

For B7, the “Relative activity (in percentage) of Pf HPPD mutants in presence of Tembotrione” value amounted to 0%.

Still in this series, the particulars now being: 10 μM Tembotrione; uninhibited enzyme activity set to 100%; 444 nM HPPD, 500 μM 4-HPP, 1 h room temperature.
For the molecule B1, the “Relative activity (in percentage) of Pf HPPD mutants in presence of Tembotrione” value is recorded as 0%.

On to B2, for which the “Relative activity (in percentage) of Pf HPPD mutants in presence of Tembotrione” value is given as 0%.

In the case of B3, the “Relative activity (in percentage) of Pf HPPD mutants in presence of Tembotrione” value is listed as 11%.

Take B4: the “Relative activity (in percentage) of Pf HPPD mutants in presence of Tembotrione” value is 10%.

For B6, the “Relative activity (in percentage) of Pf HPPD mutants in presence of Tembotrione” value is reported as 3%.

On to B7, for which the “Relative activity (in percentage) of Pf HPPD mutants in presence of Tembotrione” value is recorded as 0%.

The series is the same for the next values; noted with them: […] Tembotrione; uninhibited enzyme activity set to 100%; 444 nM HPPD, 500 μM 4-HPP, 1 h room temperature.
For B1, the “Relative activity (in percentage) of Pf HPPD mutants in presence of Tembotrione” value is 18%.

As to B2, the “Relative activity (in percentage) of Pf HPPD mutants in presence of Tembotrione” value is on record as 5%.

Regarding B3, the “Relative activity (in percentage) of Pf HPPD mutants in presence of Tembotrione” value was 26%.

Regarding B4, the “Relative activity (in percentage) of Pf HPPD mutants in presence of Tembotrione” value is given as 16%.

With B6, the “Relative activity (in percentage) of Pf HPPD mutants in presence of Tembotrione” value turned out to be 33%.

For B7, the “Relative activity (in percentage) of Pf HPPD mutants in presence of Tembotrione” value came to 4%.
